In patent publication EP0693936B1:

Molecular target: native OmpL1, 31-kDa outer membrane protein of Leptospira alstoni (Leptospira alstoni)
Assay: immunoelectron microscopy of intact L. alstoni, protein G-colloidal gold (control serum)

**Q.** With “preimmune serum from the same rabbit as the anti-OmpL1 antiserum (control serum)” as the substance, how does the gold particles per twenty organisms (particles per twenty organisms) read?
**A.** 1
